Source: the domain aggregation screens of Martell et al. (2025)

Test: soluble fraction after stress (log2 fold change); higher = more stays soluble; pooled small domains, quantitative proteomics
Conditions: stress: 75 degC
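Also: 20 min heating vs room temperature control held 20 min.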

Sequence	soluble fraction (log2)
HMAADWTAIKLAYVNGGMSMRELAQRFHVGAAGLMKRAAKEGWEAERQQNSAKVSNAAQMLIN	0.049
HMAAEEAFPGGRIVQNAEENRLQILFDEIPGEDVRAALKSHGFRWSPKNKAWQRQLTQNAEYDARRILGI	-0.06
HMAAEELTVDKILTAQSFGVTAEAILAKVNDPANTVATLTQADVDRLRAAGVPEGVVTALQARAPQ	0.118
HMAAENAVGARVKALREAMDLSLRDLSERSGVSPTMLSQVERGSTSPTLAVAEKIAAGLDLSLSQLLRL	0.137
HMAAGADEATTVPNVSGDTLNQAIKSLKAEGLGYMLSGAGARVRDQMPEPGAEMTKGSVVMLYMDGDAEVD	-0.0497
HMAAGVESLTEKEFAVASLVGGGASNREIAERLAMSERTVKSHLSSIFRKMDVRDRVQLALAMND	-0.0767
HMAAIPATVDEETYRRLKPMLKQYGILYHEFKPLRSGKKGAVELIFMEKDLALVQELLSRLKKEK	0.432
HMAAIPEQVSEEVVSAVKASGIDPGKVTKEQWTSLLKGRRTALGSSSGKLFMLSKAPVGYTLKAVNA	0.439
HMAAMDMFVKLDALDAELTEQLKALPAEPDDARVERGLALLTDYDHRIKALLTEIFGGENDFDKVL	-3.1
HMAAPPPLSDYRNMQEAEHIRNILLQHHGNVRRAAAALELSRPYLYQKMKQLGINIAELRELSLSHSS	-1.03
HMAASEAESIRILLSEGVDRVHLRKPQSAEADMRRLIEALPPELYPRLTLQDHLHLAGEYGT	-0.0361
HMAATGPLTPREAEIARLAAGHLSNRQIAEQLVVSERTVENHLYRIFIKLAVTGRDDLAAALAATEQ	-2.55
HMAATNVKVPDLKGWDYNNAVGKYGDKLSFVKKSIYSDSVSKGIIIYNARVGETVAQGTTIEVTVSLGPKG	-1.46
HMAAVPYQVKITTEDLRIRTGPGTNHDFTGQYTGKGVFTIVEESEGSGAPIWGRLKSGAGWIGIDPSWSVR	-0.546
HMADAGQTTAATELKQAPNAGSATISQLSAGQTLQIGTRQGAWYQVKTPQGEGWVRMLSVRLQ	-0.0302
HMADEGFRQTVLAVLARWESKIHHGQYNALKAKVMNGNWSSFVKQVVKFQGKFIHPDAAKELLGLFG	-3.5
HMADFIKEIKTNNPRQLLKSILSSFMPRALILELEMLLWNDLKSKPIGEWSNTQIENVGKLLNNWILKPAA	0.162
HMADIWDLLRSEYKLTETDVRMLTDMLPDELMNDFRSEVLALRDRMNRYKVNNPKSYVVTSLKNFIIQHTP	-1.09
HMADKNIIGVLSAADNLGKVRITTANGEKYIITVPDGLSDIVKTYWEEEVSVKYVIEKRRKILVDIDG	-2.04
HMADLIIMSSDATEKQVDKVINKIKNMGFNVNISKGTEKTIIGIIGDTRGISDEVFKIMPGVIEVISILRD	-1.09
HMADLIVFTTDANKEKKVDDETYFYLDVVSDGKLVENYELTEKQYNYIKDLGVGEYVYNEKGKLDSYTAFT	-0.00206
HMADPLQLLEQQRQDYIQAVTEYLNSHPNAKPIWDVMKKDAGYGDMKLTDIPLGILKKLYITLT	-0.65
HMADRVFGHIPGVAVGSIFPDRRSLSQTGVHRPTQAGISGNKTDGADSIVVSGGYRDDRDYGDLIIYTG	-0.107
HMADTFVMPDLVYRRYEPVRGYFERGGFHMGAVKFEPYEGISDGTILRQNPLPGHPLRRRDVISLVVAAS	-2.4
HMADYYETLGVERTASEEDIKRAYRKMSRKYHPDIAGPEFEEKFKEVNTAYEVLSDPDKRRMYDAGVDPND	0.0815
HMADYYSILGLTKNATDIEIKSAFRKLAKIYHPDKNPDPNARVLFEHILKAYDTLINPHSRRRYDSL	-1.31

Sequence	soluble fraction (log2)
HMAEELELFHRLISVTGVGPKGALGFLSQLKPQEIILAILSDDVKTLSKAPGVGRKTAQRVILELKDKF	-1.07
HMAEGPYSGKKVEKYPGGMEKRETMYSEGKLTRVTEFHQSGQKKMEVKVDANGQWKRLYWDNNGNPT	-0.0401
HMAEIIVHEINRHLGESDEPVEFPEERREEAVAELLKNFHNDDAFRKMDDGKYEVALDGEAVREAARSLLA	0.175
HMAELTTVQAADILHVSRPFLIKLLDEGQIPYHRVGKHRRIRMEDVMNYKRAIDQQREAVLDQLVAEA	-0.371
HMAEMLQDVLNMLSAKDREILVRYYYYYESVKQVAAEMQMSESAVKMRMSRARKKMQQELIDKG	-4.61
HMAEPAEDLLSLEGMDKGLAYQLASNGVVTREDLAELATDDLLEIREMDAEQAAALIMKAREHWFEAEQQ	0.755
HMAEPEALLAMAQRILGEEVAQSLFQGAAREQGKEGYLPDPTPAFLDALEARLSGSVGAATAHAMISQLVG	-0.15
HMAEPSTSYTQFMDQAKEGKIKRVDVQGRTLTVTPTEGATYKITAPGDLWMVEDLRKAGVQVYGQP	0.29
HMAEPYDERKVMEQMIPKGKNTIVAHLGHLKDHGETGYLQEALSYLRERESELGFDLKEVRALVHN	0.365
HMAEQVLHQKLAARRKELNSLVAQVARVRGIPHSHVHSGLRREAGGPPLAQATTDQVEARISLARKWLRA	-1.47
HMAERLQARIDAPGVRLDKALAETFPTLSRARLQALLADGAVTRDGQTVSNGSAKAQPGLYVVALPPVA	0.385
HMAESNQIQLSDVREALNMIGPASWLDLVHYLDTGKGRGGQRLRRMLKSLSRSGEIELVARGTYQITDN	-0.437
HMAEVALFVNGSDVNLRSGPGQESTRVIGSLNLGDEVRIKSQNGQWREVYVPKTRQVGWVAHWLLSEAPP	-0.535
HMAEVPDLRNKTQQEAEAELTNHNLKLGNVTEEYSATVEAGRVISQSTSYGTKVLEGSSVDITISKGPEPT	0.135
HMAEWLFDARKIPDEVMNYLRRIAVQAIEEKHYSPELVADLLGISRSSIYDWLNWYRNGGEEDLDTRKA	-1.53
HMAFAQMAQEAAKGKDDFNDLRQEMEAVIKEQPHILLMAQFGQNPYEIAYQEAKRRKAQDQQQQQ	0.877
HMAFGTGTVTASSLRVREDASTSAATLDTLSKGSKVSVLADEQDGFYKVQIGEQVGYMSAEYLDVTE	0.00175
HMAFKNGLLQTSKKVTLVRKVDGVTMRFDSLRAASVFLGRNKGYLSNVIKNGRTLDNYEIVVGE	-1.04
HMAFRIGGFVQEGSVVRQQDGGTVRFEVTDTAHSVPVTYKGSLPDLFKEGKGVVAQGKLMNGTFVADQVLA	0.165
HMAGATDTVRNLLERQIREGELLPGQRLPTEPELAARLGVSRNSLREALQSLEDSGLIVKRHGIGTFVTE	0.0985
HMAGLELVVTREQAGRTVKSLLRGELGISTALMGRLKRTGTGLTVNGTRVFTNAVLREGDRLAVDLDAAE	-1.35
HMAGLKERLFYFIEYKGLTVQSFEKTVGLSNGAVSKMGDNTRRSTIDKISNFFGDLNKNWLLTGEGEMLI	-2.98
HMAGRKMMVMANNLSVRKSANSLSEKLADLSRGDTVEYISSTNGWNKVRYKGQIGYVSSYYLKDTGEEVE	-0.562
HMAGTKRAENIEIQKLTEVLEARLDSVGFFWPDHKAESMIMTLRNMISRLPLTEADVRVFHGIIKSLADK	-0.486
HMAGTWQDQGNGQWKYQNDDGSYATGWIEDSGKSYYLDANGIMLANTTTPDGKQVGPDGALIP	-0.15
HMAHETIDVAALRVGMFVQLDLGWLSHPFPLSSFRISSEDQIATIRALGLKRVRWSSEQSDS	-4.58

Sequence	soluble fraction (log2)
HMAHPRTHEALNPLWEKYLGPNAGNDFFLSGGTSLKALMFLKDLEKTLNKRIAIHAFFKDPTYEHVVSD	-0.84
HMAHTGGNTLTREKAVSVRSASDALLFEIHWNETPREDILSTREEKVDGKTYSIITIRTGKGREDHYYLLS	-1.35
HMAHYPGKVNNELVEFIRSEQRKTPHMTLTGLNRKLQRTYDLTLSESTVRKLVEAETILPLAREPD	-0.25
HMAIDLPVTTVNGKDYYYYDVQPKETIFSLSQRLGISREEIISYNPGVDGGLKAYTRLYFPVESGL	-1.21
HMAIDLSLIPGNLLRELHGAVEDGDMYRIRELIRSISAVDEKVGKELLLLAERYDYERLLELVND	-0.887
HMAIDWVQIKAEYISGTMSASKLAEKHGVSVYAIRKRSGKERWQELRRQNQSETANKIAEKI	-2.16
HMAIDYYQTLINLGYKLQDRGDYWQTSAIHRGGDNPTALQIYKNTGVWKDYVSGGGFKPFKALVEKSD	-0.944
HMAIELTPRQLDIIELVRKHAPITGEQIAELLGVTRPSIRSDLGLLVMLGYIDAKPKVGYFAGPRM	-1.16
HMAIGSRLKVTTDATNLNIRSTPSTEGDIVGKAAHHEIVTLVEKTDDSWWKIKTNDGEEGYAYAQYLSPV	-0.031
HMAIIQSNNIFKSQKEIVDEILVELDIPKDKWNFFHMLISSGYKDEFDTNRIYEIIQTNYNMMDR	-0.298
HMAILDTALDVLSMNLKDNYTSFQILRQAAIAGKIAFNLTEKNPLGGVIEVELTGDDLETWIEAATW	0.183
HMAIMISINAKGEVAWNDQIISLDDLAQRFNAAGQQAQKPTVQLRADKESRYDMVAQVMSRASEAGLSDIA	-0.83
HMAIRLIKASREFNVGISTIVEFLEKKGHAIDSDPNSKIPDELYQLIEKEFQTEGSVKKAAKQI	-1.81
HMAITLEVAKKHLEMWLEAESEVAINQSYTIGGKSFTRANLAEIRKQIEYWSNKVAELENLA	-1.04
HMAITYETKVISGVNLRSAPSTSASVYQLIPKGENIHVVQKVNDYWLKVQTKDGKTGYISASSKYTNYIG	-2.7
HMAIWAVFYKNEPFNLKSFNSLTSYPGPKYKKTSFSNPGHALNLAKKLNLTFGTEDFQVVKLTQGTIV	-2.69
HMAKIEVENLEETILENLKANNGFMPYNDKTSPEEIYEVFHVSKKHFKNSLGGLMKKGLIFQNEKGTKL	-0.193
HMAKITERVMGSAALRDYDPNYLPDEVLKALDGYPPFDGYVYKDGILYARVKIGDTFFIIPPI	-2.53
HMAKKDVESTLGGRLRVARVRAGLTQVELARMLGMNSVSLSNVEGGRRGLSMKQLVRVAKILEVPVAYLLG	-2.36
HMAKMPSIIIMKDGVIRTSELEQIERDENWLNEEMKKQHIDNPEDVFLAEFWDGKVNFILQDGKIK	-0.0894
HMAKNDSGLNNHTFNTIRDALQKALTDGPQEAKKLTENLPFPADKIITVIRYLADHDEHFSLEDGIISLT	0.609
HMAKNIEVPNLVGSTISVARNDLKQLGLHVIVRDSVWSEDKKIDTILEQFPEPGKKLKPEGVVQVVVSI	-0.909
HMAKNSVLTIELWNSTAFKWRKDTEPYSESMSVDFNRSVRLTDGISIMFSKFGFVPGIQYLIPLQT	-0.534
HMAKQQTTTTAHVVTTGETLYSIAQKNGISVEELKKSNNITSDKLRPGQTLHITKVSKTSSTAK	0.87
